Tests used:
[1] = test system: human bone marrow-derived AC133+CD34+ cells; experiment: Human bone marrow cell adherence and differentiation assay; format: cell-based; settings: 50 ng/ml
Description: Enriched human BM derived AC133+CD34+ cells (Clonetics) at 10^5/ml were cultured for 3 days in HPGM (Clonetics) in a 6-well plate (Becton Dickinson). Cells were then seeded in collagen coated 12-well plates in EBM (Clonetics) medium containing 4% FCS and VEGF165 (R&D Systems) or PDGF-CC (50 ng/ml each). Growth factors were added every two days and media were refreshed at 75% every four days. For adherence assay, 2.5×10^4 of non-adherent cells/ml were cultured in the same condition on chamber slides coated with collagen, or in 96-well plate coated with 0.3% gelatin in PBS. Cells were then washed three times with PBS, fixed and stained with May-Grünwald Giemsa (Sigma) after two weeks of culture on chamber slides (Becton Dickinson). The number of viable cells was estimated by ATP quantification using cellTiter-glo luminescent cell viability assay (Promega) according to the manufacturer's instructions. For cell surface marker staining, cells (2×10^4/well) cultured on collagen-coated culture slides for two or four weeks were fixed (45 min, 25° C.) and permeabilized (45 min, 25° C.) using a Intrastain Kit (DAKO), and then labeled with CD31-FITC (Becton Dickinson), CD144-FITC (Pharmingen), CD34-FITC (Becton Dickinson) or SMC-Actin CY3 (Sigma). Single or double-labeled cells were analyzed using laser confocal immunofluorescence microscopy.
Upon stimulation by growth factors or cytokines, bone marrow stem/progenitor cells can differentiate into ECs and SMCs and thereby contribute to angio/arteriogenesis (Orlic et al., Nature, 2001 410:701-5; Kawamoto et al., Circulation, 2001 103:634-7; Asahara et al., Circ Res, 1999 85:221-8). The potential role of PDGF-CC in the differentiation of bone marrow progenitors into vascular cells has, however, not been investigated thus far. We therefore cultured human bone marrow-derived AC133^+CD34^+ cells—a population enriched for stem/progenitor cells (Miraglia et al., Blood, 1997 90:5013-21; Yu et al., J Biol Chem, 2002 277:20711-6; Donnelly et al., Leuk Lymphoma, 2001 40:221-34)—and stimulated them with PDGF-CC, using VEGF as a control (50 ng/ml each).

hSMC = hSMC proliferation assay; format: cell-based, human; settings: two days, different concentrations
Description: Cell migration assays were performed on growth arrested confluent HMVEC, BAEC or hSMC cells. Cell monolayers were wounded with a rubber policeman and washed with serum-free medium. Dishes were then incubated for 20 hours in serum-free medium containing VEGF165, PDGF-AA, (R&D Systems, Minneapolis USA) or PDGF-CC. Each assay included two dishes per condition and was repeated three times independently. Cells were photographed at 40× magnification, and migration percentage corresponding to the ratio between area of the cells and the total area of the wound (Biocom visiol@b 2000 version 4.52, San Diego). For HMVEC proliferation assay, cells were seeded in 96-well plates (5 wells per condition), and incubated with VEGF, PDGF-AA, or PDGF-CC (50 ng/ml) after serum starvation. After 7 days, viable cells were counted using the cell Titer-glo luminescent cell viability assay. For NIH-3T3 and hSMC proliferation assay, cells cultured in 96-well plates were serum-starved overnight, followed by treatment with growth factors at different concentrations. Two days later, cell numbers were counted and proliferation percentage calculated, using cells cultured in medium containing 10% serum as control. Aortic ring assay was performed as described 51. […] Aortic rings were analysed at day 9 of culturing. […]

infarcted heart area = experiment: Revascularization following heart infarction (LAD ligation), Examples 16-17; format: in vivo, mice
Description: Chronic myocardial ischemia was replicated by ligation of the left anterior descending (LAD) coronary artery using anesthetized 10 week old normal C57B16 mice. For PDGF-C treatment mice, 10 μg of recombinant human PDGF-CC core domain protein produced in baculovirus infected insect cells were administered after heart infarction using a subcutaneous osmotic minipump for seven days (ALZET™osmotic pump, DURECT Corporation, Cupertino, Calif.). Seven days after LAD ligation, infarcted hearts were fixed and collected. The PDGF-CC core domain protein (SEQ ID NO: 40) corresponds to corresponds to residues 230-345 of full-length PDGF-C protein i.e. amino acids 230-345 of SEQ ID NO:3. The hearts were sectioned longitudinally into 6 μm sections. Hematoxylin-eosine and immunohistochemical stainings were performed using thrombomodulin as a marker for endothelial cells. Smooth muscle alpha-actin was used as a marker for vascular smooth muscle cells. Infarcted areas and vessel densities were calculated using a Quantinet Q600 image analysis system (Leica, Brussels, Belgium). Data were statistically analyzed using the Student T test.
The same experiment as discussed in Example 16 was repeated using 30 μg recombinant PDGF-C per mouse.

[2] = 10 μg by osmotic minipump for seven days
[3] = 10 μg by osmotic minipump for seven days, average ±SD

B1: PDGF-CC: recombinant human PDGF-CC core domain homodimer, residues 230-345 of full-length PDGF-C (SEQ ID NO:40), produced in baculovirus infected insect cells (protein)
chain: GRKSRVVDLNLLTEEVRLYSCTPRNFSVSIREELKRTDTIFWPGCLLVKRCGGNCACCLHNCNECQCVPSKVTKKYHEVLQLRPKTGVRGLHKSLTDVALEHHEECDCVCRGSTGG
modifications: homodimer; PDGF-C core domain
SMA positive cells ([1]; four weeks): > 95% | expression of CD144 and CD31 ([1]; four weeks): lost their expression | adherence of AC133+CD34+ cells ([1]; two weeks of stimulation): enhanced | expression of EC surface markers CD144 (VE-cadherin) and CD31 (PECAM) ([1]; two weeks of stimulation): induced | expression of smooth muscle cell marker SMA ([1]; two weeks of stimulation): induced | proliferation of cultured hSMC cells (hSMC): stimulated | large vessel (>30 μm) density relative to normal (untreated) mice (infarcted heart area; [2]): 114% | medium vessel (10-30 μm) density relative to normal (untreated) mice (infarcted heart area; [2]): 111% | small vessel (<10 μm) density relative to normal (untreated) mice (infarcted heart area; [2]): 159.4% | large vessel (>30 μm) density (infarcted heart area; [3]): 8.3±3.2 large vessels/mm^2 | medium vessel (10-30 μm) density (infarcted heart area; [3]): 14.5±3.7 medium vessels/mm^2 | small vessel (<10 μm) density (infarcted heart area; [3]): 33.2±12.5 small vessels/mm^2 | total vessel density (infarcted heart area; 10 μg by osmotic minipump for seven days, average ±SD, n=6): 56±16.6 total vessels/mm^2 | total vessel density relative to normal (untreated) mice (infarcted heart area; 10 μg by osmotic minipump for seven days, infarcted area): about 136% | SMA positive large vessel density relative to normal (untreated) mice (infarcted heart area; 30 μg per mouse over 7 days): 114% | SMA positive medium vessel density relative to normal (untreated) mice (infarcted heart area; 30 μg per mouse over 7 days): 142% | SMA positive small vessel density relative to normal (untreated) mice (infarcted heart area; 30 μg per mouse over 7 days): 145% | thrombomodulin positive large vessel density relative to normal (untreated) mice (infarcted heart area; 30 μg per mouse over 7 days): 167% | thrombomodulin positive medium vessel density relative to normal (untreated) mice (infarcted heart area; 30 μg per mouse over 7 days): 153% | thrombomodulin positive small vessel density relative to normal (untreated) mice (infarcted heart area; 30 μg per mouse over 7 days): 147% | total SMA positive vessel density relative to normal (untreated) mice (infarcted heart area; 30 μg per mouse over 7 days): 141% | total thrombomodulin positive vessel density relative to normal (untreated) mice (infarcted heart area; 30 μg per mouse over 7 days): 151%

Source: patent US20070172423A1, “Composition and method for modulating vasculogenesis for angiogenesis” (priority 1998, published 2007)
